From PMC4624786

B1: unnamed (parent)
chain 1: MSMPDAMPLPGVGEELKQAKEIEDAEKYSFMATVTKAPKKQIQFADDMQEFTKFPTKTGRRSLSRSISQSSTDSYSSAASYTDSSDDEVSPREKQQTNSKGSSNFCVKNIKQAEFGRREIEIAEQDMSALISLRKRAQGEKPLAGAKIVGCTHITAQTAVLIETLCALGAQCRWSACNIYSTQNEVAAALAEAGVAVFAWKGESEDDFWWCIDRCVNMDGWQANMILDDGGDLTHWVYKKYPNVFKKIRGIVEESVTGVHRLYQLSKAGKLCVPAMNVNDSVTKQKFDNLYCCRESILDGLKRTTDVMFGGKQVVVCGYGEVGKGCCAALKALGAIVYITEIDPICALQACMDGFRVVKLNEVIRQVDVVITCTGNKNVVTREHLDRMKNSCIVCNMGHSNTEIDVTSLRTPELTWERVRSQVDHVIWPDGKRVVLLAEGRLLNLSCSTVPTFVLSITATTQALALIELYNAPEGRYKQDVYLLPKKMDEYVASLHLPSFDAHLTELTDDQAKYLGLNKNGPFKPNYYRY
chain 2: MASASSGPAAAGFSSLDAGAPAGTAAASGIKRATVSEGPSASVMPVKKIGHRSVDSSGETTYKKTTSSALKGAIQLGITHTVGSLSTKPERDVLMQDFYVVESIFFPSEGSNLTPAHHYNDFRFKTYAPVAFRYFRELFGIRPDDYLYSLCSEPLIELSNSGASGSLFYVSSDDEFIIKTVQHKEAEFLQKLLPGYYMNLNQNPRTLLPKFYGLYCVQAGGKNIRIVVMNNLLPRSVKMHMKYDLKGSTYKRRASQKEREKTLPTFKDLDFLQDIPDGLFLDADMYSALCKTLQRDCLVLQSFKIMDYSLLMSIHNMDHAQREPTSNDTQYSADTRRPAPQKALYSTAMESIQGEARRGGTVETEDHMGGIPARNNKGERLLLYIGIIDILQSYRFVKKLEHSWKALVHDGDTVSVHRPGFYAERFQRFMCNTVFKKIPLKPSPTKKFRSGPSFSRRSGPSGNSCTSQLMASGEHRAQVTTKAEVEPDVHLGRPDVLPQTPPLEEISEGSPVPGPSFSPVVGQPLQILNLSSTLEKLDVAESEFTH
B2: unnamed (parent)
chain 1: B1 chain 1
chain 2: MATPSNLGSSVLASKTKTKKKHFVAQKVKLFRASDPLLSVLMWGVNHSINELSHVQIPVMLMPDDFKAYSKIKVDNHLFNKENMPSHFKFKEYCPMVFRNLRERFGIDDQDFQNSLTRSAPLPNDSQARSGARFHTSYDKRYVIKTITSEDVAEMHNILKKYHQYIVECHGVTLLPQFLGMYRLNVDGVEIYVIVTRNVFSHRLSVYRKYDLKGSTVAREASDKEKAKELPTLKDNDFINEGQKIYIDDSNKKIFLEKLKKDVEFLAQLKLMDYSLLVGIHDVERAEQEEVECEENEGEEEGESDGAHPIGTPPDSPGNTLNSSPPLAPGEFDPNIDVYAIKCHENAPRKEVYFMAIIDILTHYDAKKKAAHAAKTVKHGAGAEISTVNPEQYSKRFLDFIGHILT

Variants of: B1
Experiment: co-immunoprecipitation, Western blot quantification
Details: with partner chain of the complex shown; COS-7 cells; n = 4; parent: 100; read off a plot
In the case of chain 1 T82A, the percent of parent is reported as 26 % of WT.
With chain 1 S77A the percent of parent was 65 % of WT.
For chain 1 S70A, the percent of parent was 50 % of WT.
In the case of chain 1 S68A, the percent of parent is reported as 2 % of WT.
In the case of chain 1 S80A, the percent of parent is reported as 57 % of WT.
In the case of chain 1 S64A, the percent of parent is reported as 83 % of WT.
For chain 1 S74G, the percent of parent was 14 % of WT.
In the case of chain 1 S76G, the percent of parent is reported as 100 % of WT.
For chain 1 S85A, the percent of parent was 81 % of WT.
With chain 1 T72A the percent of parent was 90 % of WT.
chain 1 S90A was tested, and the percent of parent was 120 % of WT.
In the case of chain 1 S66A, the percent of parent is reported as 49 % of WT.
chain 1 S71A was tested, and the percent of parent was 3 % of WT.
With chain 1 S84A the percent of parent was 43 % of WT.

Variants of: B2
Experiment: as above
Details: with partner chain of the complex shown; COS-7 cells; n = 4; parent: 100; read off a plot
With chain 1 S70A the percent of parent was 75 % of WT.
chain 1 S80A was tested, and the percent of parent was 79 % of WT.
In the case of chain 1 S84A, the percent of parent is reported as 100 % of WT.
With chain 1 T72A the percent of parent was 67 % of WT.
For chain 1 S64A, the percent of parent was 95 % of WT.
chain 1 S74G was tested, and the percent of parent was 42 % of WT.
For chain 1 S66A, the percent of parent was 71 % of WT.
For chain 1 T82A, the percent of parent was 107 % of WT.
chain 1 S68A was tested, and the percent of parent was 3 % of WT.
For chain 1 S76G, the percent of parent was 51 % of WT.
With chain 1 S85A the percent of parent was 96 % of WT.
With chain 1 S77A the percent of parent was 11 % of WT.
With chain 1 S71A the percent of parent was 3 % of WT.
For chain 1 S90A, the percent of parent was 130 % of WT.
